Experiment [1] addresses T1, BoNT/A Lc448, truncated botulinum neurotoxin serotype A light chain containing residues 1-448 (Clostridium botulinum, UniProt P0DPI0 1-448).
T1 construct: range 1-448
Briefly: KinExA flow fluorimetry, solution kinetics, purified Aa1 VHH and BoNT/A Lc448.

The target in experiment [2] is T1, BoNT/A Lc448, truncated botulinum …. Put plainly: flow cytometry, yeast-displayed VHH titrated with soluble BoNT/A Lc448. A general note: A flow cytometer gives signals particle by particle.
For experiment [3] the target is unchanged. Briefly: KinExA flow fluorimetry, solution equilibrium, purified Aa1 VHH and BoNT/A Lc448.
Experiment [4] has the same target.
Experiment [5] has the same target. Briefly: KinExA; calculated as KD × kon.

T1 sequence (P0DPI0 1-448 limits assumed): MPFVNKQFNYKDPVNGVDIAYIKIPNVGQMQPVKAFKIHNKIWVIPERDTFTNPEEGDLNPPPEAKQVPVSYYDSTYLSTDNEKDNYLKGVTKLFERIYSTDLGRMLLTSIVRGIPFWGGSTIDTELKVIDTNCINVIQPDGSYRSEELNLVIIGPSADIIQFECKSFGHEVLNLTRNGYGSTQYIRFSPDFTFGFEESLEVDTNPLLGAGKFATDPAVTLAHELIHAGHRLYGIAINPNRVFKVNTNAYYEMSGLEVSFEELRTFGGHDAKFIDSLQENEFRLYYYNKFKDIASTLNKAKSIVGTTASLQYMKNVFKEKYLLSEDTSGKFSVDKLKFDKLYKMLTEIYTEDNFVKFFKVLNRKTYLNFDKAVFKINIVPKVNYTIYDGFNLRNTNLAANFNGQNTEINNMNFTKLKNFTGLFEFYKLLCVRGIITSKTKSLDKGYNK

B1: Aa1 VHH (VHH)
VHH: AVQLVDSGGGTLQAGKSLRLSCAISGLAFDGGAMGSEHRLTAGAMGWFRQAPGKDREFVAAISPRTDETYYAESLEGRFSVSRDAAATMVFLEADNVRLDDTASYYCAADEDVTPRVMGVIPHADHWGQGTLVTVSS
In turn, B1 registered a kon in experiment [1] of 4.39e+07 M⁻¹ s⁻¹. Further, the Kd in experiment [2] was found to be 0.03 nM; in experiment [3], 0.147 nM. The “IC50 (read off the curve)” value in experiment [4] was roughly 0.1 nM. Also, the koff in experiment [5] was 0.00666 s⁻¹.

B2: Aa6 VHH (VHH)
VHH: AVQLVESGGGLVASGGSLRLSCAASDFKFSDYWMHWIRQAPGKEREFVASIGWNGEITDYEESIEGRFAISRDNNKYTLYLEMRDLIPEDTGLYYCAASSDYRWSRQPFEFENWGQGTQVTVSS
In the case of B2, in experiment [2], the affinity, expressed as Kd, was 0.52 nM.

B3: Aa8 VHH (VHH)
VHH: AVQLVESGGGLVQAGDSLRLSCTLSGGTFRHYAMSWFRQAPGKERVFVARIDYDGAMKYYADSVKGRFTISRDNAKNTMYLQMNSLKPEDTAVYYCNAHWDYGLGPEWDYWGQGTLVTVSS
As for B3, in experiment [2], binding was put at a Kd of 112 nM.

B4: Aa9 VHH (VHH)
VHH: QVQLVESGGGMVQPGGSLRLSCKGSGSVFMFYDMGWYRQAPGNQRELVAVMGPGGNTNYADAVKGRFTVARNIDEDTVSLLMTNLEPEDTAVYYCAADFDTPWGASGRYDYWGQGTQVTVSS
Molecule B4 yielded a Kd in experiment [2] of 4.08 nM.

B5: A21 VHH (VHH)
VHH: QVQLVESGGGVVQAGGSLRLSCVASGFTIDDYPVAWFRQAPGKEREAVSCIGNRGGTTYYADSVKGRFSISRDDAKDTVYLQMNNLKSEDTAVYYCVKDLGSVGPGAEYDYWGQGTLVTVSS
In experiment [2], B5 came in with a Kd of 60.7 nM.

B6: Aa11 VHH (VHH)
VHH: QVQLVESGGGLVQAGGSLRLSCAASGRTFSSYAMGWFRQAPGKEREFVAAISWSGGSTYYADSVKGRFTISRDDARNTVTLLMNSLKPEDTAVYFCNAWSLEEQYWGQGTQVTVSS
In the case of B6, the Kd in experiment [2] was found to be 76.1 nM.

B7: A26 VHH (VHH)
VHH: DVQLVESGGGLVQPGGSLRLSCVVSGLTSTEYAIGWFRQAPGKEREGVACLVVSGHNSGRTHYSAAVKGRFTVSQDDATNTAILHMDNLQPKDTAVYYCAAEVSSGQPAVTTFWEDMYDYWGQGTQVTVSS
In turn, B7 had a Kd in experiment [2] of 8.7 nM.

B8: A23 VHH (VHH)
VHH: AVQLVESGGGAVSPGGSLKLSCTASGLAFNGGAMGSEHRLTAGAMGWFRQAPGKDREFVAAIHPRTNDTYYSGTLEDRFTISIDDAKMTVYLQADSLRLEDTAVYSCAADEDVTPRGMGVIPYAEYWGQGTQVTVSS
In experiment [2], B8 registered a Kd of 16.9 nM.

B9: A19 VHH (VHH)
VHH: EVQLVESGGGLVQPGGSLRLSCAASGFTFSGSAMSWVRQTPGKGLEWVSFISRSGSVTEYADSVKGRFTIARDNAPNTVYLQMNSLKPEDTAVYYCTADSYVDYEDDRLKWHHSWGQGTQVTVSS
B9 came in with a Kd in experiment [2] of 4.65 nM.

As a reminder, the kon is the rate constant with which the complex forms. Read a high kon as fast association. Usually Kd stands for the free concentration of one partner at which half of the binding sites on the other are occupied at equilibrium, for simple one-to-one binding. Low values mean tighter binding, high ones weaker binding. The term koff denotes the first-order rate constant of dissociation.

The values are drawn from US20120269822A1 (published 2012).
